Data taken from patent US20110262446A1 (published 2011).
Values belong to the binder of their own block, whether it stands above or below them.

What was measured:
[1] = target: T1, IGF-II (amino acids 1-67) (human, UniProt P01344 25-91); experiment: SPR (Biacore T100): IgG captured on Protein G', IGF-II injected
T1 construct: mature; also called IGF-II (67aa); IGF2
Description: (§1) BIACORE® T100 and a CM5 chip coated with Protein G were utilised to set up following assay. Approximately 1000 RU of Protein G′ was immobilized on a CM5 chip using standard amine chemistry immobilization method. Entire assay consisted of three sequential injection of following four reagents 1) Candidate IgG was injected onto Protein G′ at 10 ug/ml at 5 ul/min for 180 sec.

[2] = target: T1, IGF-II (amino acids 1-67); experiment: SPR (Biacore), germlined IgG
[3] = target: T1, IGF-II (amino acids 1-67); experiment: SPR (Biacore T100): IgG captured on Protein G', ligand bound, then BP injected; competitor BP2
Description: as §1

[4] = target: T2, IGF binding protein BP2 (UniProt P18065 36-325); experiment: SPR (Biacore T100): control with no IGF-II injected before the BP
T2 construct: also called IGF BP2
T2 sequence (looked up): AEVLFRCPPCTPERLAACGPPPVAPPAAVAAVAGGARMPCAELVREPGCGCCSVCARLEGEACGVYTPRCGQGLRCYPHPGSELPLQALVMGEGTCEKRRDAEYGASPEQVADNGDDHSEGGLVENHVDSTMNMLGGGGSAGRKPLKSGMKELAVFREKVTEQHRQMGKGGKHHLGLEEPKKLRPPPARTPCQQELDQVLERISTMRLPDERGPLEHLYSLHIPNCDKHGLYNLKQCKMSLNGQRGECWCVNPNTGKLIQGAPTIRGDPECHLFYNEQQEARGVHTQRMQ
Description: as §1

[5] = target: T3, IGF binding protein BP4 (UniProt P22692 22-258); experiment: as above
T3 construct: also called IGF BP4
T3 sequence (looked up): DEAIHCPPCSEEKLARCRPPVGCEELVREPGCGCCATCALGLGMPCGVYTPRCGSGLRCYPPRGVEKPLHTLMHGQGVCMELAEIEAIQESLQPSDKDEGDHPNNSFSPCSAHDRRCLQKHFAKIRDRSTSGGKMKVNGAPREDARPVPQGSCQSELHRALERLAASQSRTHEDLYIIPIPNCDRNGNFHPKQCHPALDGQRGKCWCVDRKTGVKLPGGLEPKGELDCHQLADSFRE
Description: as §1

[6] = target: T1, IGF-II (amino acids 1-67); experiment: cell-based or functional assay
[7] = target: T1, IGF-II (amino acids 1-67); experiment: SPR (Biacore), non-germlined IgG
[8] = target: T1, IGF-II (amino acids 1-67); experiment: SPR (Biacore T100): IgG captured on Protein G', ligand bound, then BP injected; competitor BP4
Description: as §1

T1 sequence (P01344 25-91): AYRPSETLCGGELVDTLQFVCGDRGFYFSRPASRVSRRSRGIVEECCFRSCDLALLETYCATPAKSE

binding result [1]: no binding (tested: 50 nM)
B1: 566A-M0073-C11 IgG (antibody, V domains shown)
VH: EVQLLESGGGLVQPGGSLRLSCAASGFTFSPYDMWWVRQAPGKGLEWVSSISSSGGITAYADSVKGRFTISRDNSKNTLYLQMNSLRAEDTAVYYCARAGYSSSWGYYYYGMDVWGQGTTVTVSS
VL: QSALTQPPSVSVSPGQTASITCSGDRLGDKYASWYQQKPGQSPVLVIYQDTKRPSGIPERFSGSNSGSTATLTISGTQAMDEADYYCQAWDSSTVVFGGGTKLTVL
notes: also called 566A-X0003-B02

binding result [1]: no binding (tested: 50 nM)
B2: M0080-G03 IgG (antibody, V domains shown)
VH: EVQLLESGGGLVQPGGSLRLSCAASGFTFSFYQMMWVRQAPGKGLEWVSSISPSGGRTYYADSVKGRFTISRDNSKNTLYLQMNSLRAEDTAVYYCAKDIGLGYCSSTSCYTGTPLDYWGQGTLVTVSS
VL: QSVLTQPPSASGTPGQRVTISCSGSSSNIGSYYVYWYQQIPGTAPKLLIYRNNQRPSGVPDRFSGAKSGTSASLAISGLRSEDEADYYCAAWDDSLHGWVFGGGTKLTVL
notes: also called 566A-M0080-G03; 566A-X0004-A02

Kd [2]: 0.023 nM
B3: X0008-A01 (germlined M0064-F02 IgG) (antibody, V domains shown)
VH: EVQLLESGGGLVQPGGSLRLSCAASGFTFSNYIMWWVRQAPGKGLEWVSVISSSGGMTRYADSVKGRFTISRDNSKNTLYLQMNSLRAEDTAVYYCARDNGDYVGEKGFDIWGQGTMVTVSS
VL: DIQMTQSPSSLSASVGDRVTITCRASQSISNYLNWYQQKPGKAPKLLIYTASTLQSGVPSRFSGSGSGTDFTLTISSLQPEDFATYYCQQSYNSPWTFGQGTKVEIK

competition score (0 = does not compete significantly, 5 = competes strongly) [3]: 5 score 0-5 | binding result [4]: no binding (tested: 50 nM) | binding result [5]: no binding (tested: 50 nM) | IC50, IGF-II stimulated BaF3 cell proliferation (Guava ViaCount) [6]: ~19 nM | Kd [7]: 0.52 nM | competition score (0 = does not compete significantly, 5 = competes strongly) [8]: 5 score 0-5
B4: M0064-E04 IgG (antibody, V domains shown)
VH: EVQLLESGGGLVQPGGSLRLSCAASGFTFSVYDMNWVRQAPGKGLEWVSSISSSGGGTLYADSVKGRFTISRDNSKNTLYLQMNSLRAEDTAVYYCARDSDTSSYYWYYDLWGRGTLVTVSS
VL: DIQMTQSPSSLSASVGDRVTITCQASHDISNYLNWYQQKPGKAPKLLIYAASRLQSGVPSRFSGGGSGTDFSLTISSLQAEDFATYYCQQSYSFPRTFGQGTNLEIK
notes: IgG form of the Fab; also called non-germlined M0064-E04
